Data as given in US10006009B2, “Codon-optimized gene for mutated shrimp luciferase and method for use thereof” (JNC CORPORATION, priority 2013, dated 2018).

B1: nanoKAZ gene: codon-optimized gene for the mutated catalytic 19 kDa domain of Oplophorus luciferase, SEQ ID NO: 2 (nucleic acid)
DNA: ATGGTCTTCACCCTGGAGGACTTCGTCGGCGACTGGAGACAGACCGCCGGCTACAACCTGGACCAGGTCCTGGAGCAGGGCGGCGTCAGCAGCCTGTTCCAGAACCTGGGCGTCAGCGTCACCCCCATCCAGAGAATCGTCCTTAGCGGCGAGAACGGCCTGAAGATCGACATCCACGTCATCATCCCCTACGAGGGCCTGAGCGGCGACCAGATGGGCCAGATCGAGAAGATCTTCAAGGTCGTCTACCCCGTCGACGACCACCACTTCAAGGTCATCCTGCACTACGGCACCCTGGTCATCGACGGCGTCACCCCCAACATGATCGACTACTTCGGTAGACCCTACGAGGGCATCGCCGTCTTCGACGGCAAGAAGATCACCGTCACCGGCACCCTGTGGAACGGCAACAAGATCATCGACGAGAGACTGATCAACCCCGACGGCAGCCTGCTGTTCAGAGTCACCATCAACGGCGTCACCGGCTGGAGACTGTGCGAGAGAATCCTGGCCTAA
modifications: synthetic DNA
B2: nanoKAZ: mutated catalytic 19 kDa domain protein of Oplophorus luciferase encoded by the codon-optimized gene (SEQ ID NO: 1) (protein)
chain: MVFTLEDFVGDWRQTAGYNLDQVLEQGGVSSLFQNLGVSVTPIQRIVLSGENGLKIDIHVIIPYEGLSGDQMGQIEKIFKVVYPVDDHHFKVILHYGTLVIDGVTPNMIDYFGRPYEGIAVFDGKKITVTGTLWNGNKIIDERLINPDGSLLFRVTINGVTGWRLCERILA

Test system: CHO-K1 cells
Assay: Comparison of expression between nanoKAZ and nanoLuc genes in CHO-K1 cells
Format: cell-based, Chinese hamster
Text: In order to compare the gene expression efficiency between the nanoKAZ gene and the nanoLuc gene in the cultured cell system, an expression vector that was different only in the nanoKAZ gene sequence and the nanoLuc gene sequence was constructed. The expression vector constructed was transfected to CHO-K1 cells. Then, the expression level of luciferase activity was compared by the following procedure. In the nanoLuc gene, the gene sequence described in Hall et al. (2012) ACS Chem. Biol. […] was chemically synthesized and provided for use.
The vector was introduced into CHO-K1 cells by the method described in EXAMPLE 3. After incubation for 23 hours, the culture medium and the cell extract were recovered. The luminescence activity in the culture medium and the cells was measured by the method described in EXAMPLE 4, using coelenterazine as a light-emitting substrate.

| Molecule | expression relative to the nanoLuc gene (without secretory signal, in the culture medium and the cells) | luminescence activity relative to nanoLuc (with signal peptide, secreted into the culture medium) |
| --- | --- | --- |
| B1 | about 2 fold |  |
| B2 |  | about 1.4 fold |
